Consider two molecules from US20220112258A1 (I MAB BIOPHARMA US, published 2022).

The target in experiment [1] is T1, recombinant human his-tagged PD-L1 protein (human, UniProt Q9NZQ7 19-238).
T1 construct: also called hPDL1-his; his-tagged human PD-L1; not shown: his tag
As to the kind of experiment: SPR (Biacore T200), ligand captured on protein A chip, hPDL1-his as analyte. How it is done: A series of dilutions of human PD-L1 protein were injected over captured antibody at a flow rate of 10 μL/min. […] All the experiments were carried out on a Biacore T200. Data analysis was carried out using Biacore T200 evaluation software.
A general note: Surface plasmon resonance follows binding to a sensor surface in real time, without labels.

The target in experiment [2] is T1, recombinant human his-tagged PD-L1 …. The experiment in a line: ELISA, his-tagged PDL1 coated, OD450. An excerpt: Briefly, for ELISA-based binding, his-tagged PDL1 was used as coating protein.
(In general: In an ELISA, binding on a coated surface is turned into a signal by an enzyme label.)

Experiment [3] addresses T2, IL7R of human primary CD4+ T cells (human, UniProt P16871 21-459).
T2 construct: whole, on cells; also called IL-7 receptor; IL7Rα (CD127) on CD4+ T cells
T2 sequence (looked up): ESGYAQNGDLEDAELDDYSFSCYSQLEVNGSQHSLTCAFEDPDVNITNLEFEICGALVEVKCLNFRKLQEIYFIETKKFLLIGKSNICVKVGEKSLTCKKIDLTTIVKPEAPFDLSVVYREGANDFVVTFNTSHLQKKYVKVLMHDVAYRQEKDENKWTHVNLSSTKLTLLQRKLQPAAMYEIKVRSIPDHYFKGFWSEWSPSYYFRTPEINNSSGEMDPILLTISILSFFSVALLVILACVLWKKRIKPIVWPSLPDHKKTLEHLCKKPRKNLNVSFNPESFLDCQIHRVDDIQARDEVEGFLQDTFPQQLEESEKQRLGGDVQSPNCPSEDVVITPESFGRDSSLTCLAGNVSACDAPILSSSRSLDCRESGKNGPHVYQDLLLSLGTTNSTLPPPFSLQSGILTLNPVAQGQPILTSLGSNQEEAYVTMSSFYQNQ
The experiment in a line: flow cytometry on human primary CD4+ T cells, 4 °C 30 min, PE anti-human Fc. The method, then:
Briefly, for IL7R binding assay, human primary CD4⁺ T cells were incubated with various anti-PDL1-IL7 fusion molecules at 4° C. for 30 mins. […] For ligation-mediated receptor internalization assay, human primary CD4⁺ T cells were cocultured with fusion molecules at 37° C. for 15 mins to induce internalization. PE-cy7-conjugated-anti-CD127 (IL7Rα) antibody was used to detect the surface IL7Rα by FACS.

Experiment [4] has as its target T3, PD-L1 expressed on cells (Raji-PD-L1; tumor cell lines RKO, HCC1954, HCC827) (human, UniProt Q9NZQ7 19-290).
T3 construct: whole, on cells; also called cell-surface expressed PD-L1; cell surface PD-L1
The experiment in a line: flow cytometry on HCC1954 breast cancer cells, MFI. On the technique in general: In flow cytometry, cells or beads pass a laser one at a time.

Experiment [5] deals with T3, PD-L1 expressed on cells (Raji-PD-L1; …). The experiment in a line: flow cytometry on Raji-PD-L1 cells, PE anti-human IgG Fc, MFI. The method, then:
After washing by FACS staining buffer, the PE-conjugated anti-human IgG Fc specific antibody was added to each well and incubated on ice for 30 mins. The MFI of PE were evaluated by FACS Celesta.

For experiment [6] the target is unchanged. As to the kind of experiment: flow cytometry on HCC827 lung cancer cells, MFI.
The target is the same in experiment [7]. As to the kind of experiment: flow cytometry on RKO colon carcinoma cells, MFI.

T3 sequence (Q9NZQ7 19-290): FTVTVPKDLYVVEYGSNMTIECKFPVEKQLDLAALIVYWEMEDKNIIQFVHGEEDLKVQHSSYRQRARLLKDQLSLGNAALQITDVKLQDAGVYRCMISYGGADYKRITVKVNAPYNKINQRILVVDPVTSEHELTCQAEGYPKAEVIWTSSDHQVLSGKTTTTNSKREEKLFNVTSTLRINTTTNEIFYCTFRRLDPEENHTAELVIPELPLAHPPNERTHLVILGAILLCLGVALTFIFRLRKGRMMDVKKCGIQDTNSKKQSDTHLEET
T1 sequence (Q9NZQ7 19-238 limits assumed): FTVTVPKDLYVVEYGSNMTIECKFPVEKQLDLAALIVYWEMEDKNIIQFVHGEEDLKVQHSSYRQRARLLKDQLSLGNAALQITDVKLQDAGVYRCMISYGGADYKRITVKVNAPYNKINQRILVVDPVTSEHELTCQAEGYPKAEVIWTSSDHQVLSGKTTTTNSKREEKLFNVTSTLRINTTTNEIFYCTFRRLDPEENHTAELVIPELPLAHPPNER

B1: α-PDL1(anti-PD-L1 v3) monoclonal antibody (antibody, V domains shown)
VH: EVQLVESGGGLVQPGGSLRLSCAASGFTFSSYDMSWVRQAPGKSLEWVATISDAGGYIYYSDSVKGRFTISRDNAKNSLYLQMNSLRDEDTAVYICAREFGKRYALDYWGQGTTVTVSS
VL: DIQMTQSPSSLSASVGDRVTITCKASQDVTPAVAWYQQKPGKAPKLLIYSTSSRYTGVPSRFSGSGSGTDFTFTISSLQPEDIATYYCQQHYTTPLTFGQGTKLEIK
notes: also called parental anti-PD-L1 antibody (v3)
One may read the Kd as the free concentration of one partner at which half of the binding sites on the other are occupied at equilibrium, for simple one-to-one binding. In general, koff refers to a measure of how fast the partners let go of each other. As usually defined, the kon is the second-order rate constant of association. The term EC50 denotes the midpoint of the concentration-response curve. With B1, in experiment [1], the Kd is 2030 pM, the off-rate constant (koff) amounted to 0.000164 s⁻¹ and the on-rate (kon) worked out at 80700 M⁻¹ s⁻¹. The EC50 in experiment [2] is 110 pM. Also, the binding result in experiment [3] was “no binding (tested: 100 nM)”.

B2: α-PDL1(anti-PD-L1 v4) monoclonal antibody (antibody, V domains shown)
VH: QVQLLESGGGLVQPGGSLRLSCAASGFTFSSYWMSWVRQAPGKGLEWVANIKQDGSEKYYVDSVKGRFTISRDNAKNSLYLQMNSLRAEDTAVYYCARVALWDDAFDIWGQGTMVTVSS
VL: DIQMTQSPSTLSASVGDRVIITCRASRGISSWLAWYQQKPGKAPNLLISKASSLESGVPSRFSGSGSGTDFTLTISSLQPEDFATYYCQQSSSIPLTFGGGTKVEIK
notes: also called parental anti-PD-L1 (V4) antibody
Turning to B2, in experiment [1], the Kd is 948 pM. For the same molecule, in experiment [1], the koff was 0.000795 s⁻¹. In addition, the association rate constant (kon) in experiment [1] was 838000 M⁻¹ s⁻¹. The EC50 in experiment [2] stood at 460 pM; in experiment [4], 280 pM; in experiment [5], 110 pM; in experiment [6], 170 pM; in experiment [7] it was 190 pM.
